From the supplement of paper PMC9170038

System: MS2 coat protein
Assay: apparent KD of MS2 coat protein; designed switch direction (-1 OFF switch, 1 ON switch): -1; higher = weaker reporter binding
Outline: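 Normalised cluster fluorescence was curve-fitted, and each design's median over clusters is its apparent KD. Before this, SNAP-549-labelled MS2 coat protein was titrated from 0.7 or 1.5 nM, doubling to 3 µM, over RNA switches transcribed on Illumina chips by stalled E. coli RNA polymerase. Titrations had no input, 200 uM small-molecule ligand, or an oligonucleotide input, and steps lasted 0.8–1.5 h (lowest) to 10–20 min (highest).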

[1] = Eterna round: R95, input ligand: FMN 200 uM
[2] = Eterna round: R95, input ligand: microRNA oligo, concentration not stated
[3] = Eterna round: R95, input ligand: none
[4] = input ligand: microRNA oligo, concentration not stated

Sequence	apparent KD of MS2 coat protein (input ligand: FMN 200 uM) [µM]	apparent KD of MS2 coat protein (input ligand: none) [µM]	apparent KD of MS2 coat protein [1] [µM]	apparent KD of MS2 coat protein [2] [µM]	apparent KD of MS2 coat protein [3] [µM]	apparent KD of MS2 coat protein [4] [µM]
GUCACAUGGACAUAGGAUCACAUGAGGAUCACCCAUGUGACUAACAAGCUUUUUGCUCGUCUUAUGUCUAUGUGAAA [Stov1/16-A1] (Eterna round: R97, puzzle: Sensor, turn-off variant 1)	0.0128	0.012				
ACCUCACAUGAGGAUCACCCAUGUCAGGAUAUACAAGAAAAUAACCGGAAAGAACGGAGUAGAAGGGACAUAAG [Zatigeri] (puzzle: Exclusion 1)			0.0281	0.0153	0.0158	
CCAUGUUAGCAGGAUAUGCAAUUAUUCUUUUACGCAGAAGGGCUUACAUGAGGAUCACCCAUGUAACAUUUCAU [JR_E6_Sub082] (puzzle: Exclusion 6)				0.0172		
GAUUAUGCGAGCUUUAGGGACAUGAGGAUCACCCAUGUUCGUCUUAUUGAUCUGGAUGCACUAACAUACCUAAAUCU [JMF 27] (puzzle: Sensor v3, turn-off variant 1)			0.0511	0.0646	0.0493	
GUUGCGUUUGUGAGGAUAUGCUGGUCCUUGGUUCGGCAGAAGGCACAUGAGGAUCACCCAUGUGGUGUUGUUCC [salish99_Bmod_ex4_052] (puzzle: Brourd's mod of Exclusion 4)				0.0905		
AAUCCACAUGAGGAUCACCCAUGUCAGGAUAUCGUGUCGCGGGUUUCGGUCCGUGAUGCGAGAAGGGACGGCUG (puzzle: Exclusion 1)				0.0274		
CUAGAGUGAGGAUAUACGAGAUCGAAAGAUCGGCGAUCCCUACAUGAGGAUCACCCAUGUAGAAGGCACUCUAG [Mod 12 - Jieux - Exclusion 2] (Eterna round: R97, puzzle: Exclusion 2)	0.115	0.016				
GAUAAGGUAGGAUAUACGAAUAAAGAGGGUAGUAAUAAUACACAUGAGGAUCACCCAUGUAGAAGGACCAAUAG [Mat - Exclusion 2 - Mod of my Tesla design - D42] (puzzle: Exclusion 2)			0.0412	0.0193	0.0179	
GCUGGUCAAGGAUAUGCAAUCGUGCUUCGGCACGUAAGGUCACAUGAGGAUCACCCAUGUAGAAGGUGACCAGC [E2/4-C1] (Eterna round: R97, puzzle: Exclusion 2)	0.0278	0.0184				
CGUUGGUCAGGAUAUGGUGGGCUGGUCGCGCGGCCGGGUGGCUAGAAGGGACAUGAGGAUCACCCAUGUACGGC [excls4-IX] (Eterna round: R96, puzzle: Exclusion 4)	0.0603	0.0489				0.0301
CUCCUCGUGGCGCCUAAACACAUGAGGAUCACCCAUGUACAGGCUUUUUGCCGUCUUACAAUAAAACCGAGGAUACG [Inveon] (puzzle: Sensor v3, turn-off variant 1)			0.0198	0.0508	0.0204	
GGUUGACAUGAGGAUCACCCAUGUGAGGAUAUGCGAGAGAAAAAAGUGAGGAAGAAAAGCAGAAGGCGCUGUCG [salish99-ex1_r3_003] (puzzle: Exclusion 1)			0.0298	0.0224	0.0455	
UCGGCGUCAGGAUAUCCAAUAUAUGACAUGAGGAUCACCCAUGUUUCCACUCGUACCUCCGGAGAAGGGACGAAUA [Ex5 #91] (Eterna round: R97, puzzle: Exclusion 5)	0.0309	0.0357				
GGAUUGUCAGGAUAUCUUAUACUUCAUAAGUGAGGAUAAAUAGAGAAGGGACAUGAGGAUCACCCAUGUAAUAA [Exclusion 4 S1] (Eterna round: R97, puzzle: Exclusion 4)	0.152	0.0368				
UACAUGAGGAUCACCCAUGUUUUGUCGUGUAUGGUAUUUAUCUAGGAUAUCAAUUUGGUUAUUUAUGAGAAGGAGAAUAUUAAU [JMF's solution 66] (Eterna round: R96, puzzle: Exclusion NG 3)	0.0489	0.0372				0.0316
ACUAGAUGAGGAUAUGCAUGUUUUCGUGUUCUUCUAGAUUAACAUGAGGAUCACCCAUGUAGAAGGCGUCAAUU [Exclusion 2 - 28] (puzzle: Exclusion 2)				0.048		
AGUAACCGUCACGAAAGUGAUGGUUACACAAGCAAAUGUACAUGAGGAUCACCCAUGUCCUCAUUUGCUCGUCUUAU [Sensor 3 - 45] (puzzle: Sensor v3, turn-off variant 2)			0.0172	0.379	0.0183	
GCGCGUAGAUAGGAUAUUUGAUAAAGACGGACCAAAGAAGGAUUUACAUGAGGAUCACCCAUGUCGAUCCUCUU [EX6 C.17] (Eterna round: R97, puzzle: Exclusion 6)	0.0142	0.0164				

Sequence	apparent KD of MS2 coat protein (input ligand: FMN 200 uM) [µM]	apparent KD of MS2 coat protein (input ligand: none) [µM]	apparent KD of MS2 coat protein [1] [µM]	apparent KD of MS2 coat protein [2] [µM]	apparent KD of MS2 coat protein [3] [µM]	apparent KD of MS2 coat protein [4] [µM]
UUGUUAUGUGUAGGAUAUGCAUAUUAUUAUUAUGCAGAAGGACAUGAGGAUCACCCAUGUAUAUUAUUAUUAUAUGUUAUAUAU [Title] (Eterna round: R96, puzzle: Exclusion NG 1)	0.0293	0.0228				0.019
UGAUUGUUUACCAGGUUAUACAUGAGGAUCACCCAUGUAGAUCCUACGUGCGCGUUAUACCGCUCGUCUUAUUCCCA [Sensor-V1 #77] (Eterna round: R97, puzzle: Sensor, turn-off variant 1)	0.0191	0.0198				
AAAUUCAGAGGAUAUGCGCAUAGAUAAGACUUUGUUUCUUAACAUGAGGAUCACCCAUGUAGAAGGCUGUACAA [Ex2 #68] (Eterna round: R97, puzzle: Exclusion 2)	0.0161	0.0134				
UUUUUGUCAGGAUAUACGUAGUAGAACAAUAGUACUACUACGUAGAAGGGACAUGAGGAUCACCCAUGUUCCUC [Fiskers Ex 4 Super stable 44 mod 16] (puzzle: Exclusion 4)				0.016		
GCUGGUCAAGGAUAUACAAUCGUGCUUCGGCACGUAAGAUCACAUGAGGAUCACCCAUGUAGAAGGUGACCAGC [E2/1-C1] (Eterna round: R97, puzzle: Exclusion 2)	0.507	0.0372				
GCACGGAGUGUAGGAUAUUAGUGCGAUUAGCACUGAGAAGGACAUGAGGAUCACCCAUGUGCUACCUCAAUUAGCCUUCCGUGC [Eli exng1 - 035] (Eterna round: R96, puzzle: Exclusion NG 1)	0.0218	0.0197				0.0165
UCUCGACAUGAGGAUCACCCAUGUCAGGAUAUUGUAUUAGAGGUUUUUUACCUUAUAACAAGAAGGGAUGUGUG [LRO-Excl1-23] (puzzle: Exclusion 1)				0.0236		
CCUAGUUGGUAAGGAUAUCCUACACUGUUCUGACCCGGGCAAGCUACAUGAGGAUCACCCAUGUGGGAGAAGGUGCGUCAACGC [Design 13] (Eterna round: R96, puzzle: Exclusion NG 2)	0.0308	0.0312				0.0222
AAAAUGUCAGGAUAUUGUUAGUUUAGUUGUUUGUAUUAGUUCGAGAAGGGACAUGAGGAUCACCCAUGUUAAAA [Ex4 #67] (Eterna round: R97, puzzle: Exclusion 4)	0.0457	0.0299				
AUAUACGGAGGAUAUACUUGAGGAUCACCCAAGUGGAAUCCCGUUUGGGCGGUAAAUAGUAGAAGGCCGACCCA [jl-ex3-4.42 ViennaUCT mod] (Eterna round: R97, puzzle: Exclusion 3)	0.0177	0.0163				
GGAAGAGAGUUAGGAUAUAUAAGAAGAAUGUGGGUAGAAGGAACGAAACAUGAGGAUCACCCAUGUCCCAUGUUGAGGAGGAGG (Eterna round: R96, puzzle: Exclusion NG 1)	1.53	0.56				0.349
AGAAGUAGAAACCGAUCCUACAUGAGGAUCACCCAUGUAGCAAGACGUGCACGCGAAGCUCGUCAGACUACCAGAAU [salish99_TOv1_r3_006] (puzzle: Sensor v3, turn-off variant 1)			0.34	0.193	0.347	
GUACUCGGAUGACAGUCCGACAUGAGGAUCACCCAUGUUUCAUUAAGGUCGUUGCUCGUCAAACAUCACUCAACCAG [Eternabot (L1) Solution 35] (Eterna round: R97, puzzle: Sensor, turn-off variant 1)	0.0432	0.0515				
AAAAAACAAGGAUAUACAAAAAAAAAAUGUGUUAAAUUUUCACAUGAGGAUCACCCAUGUAGAAGGUGUAAAAA [JR_Exclusion2_Sub005] (puzzle: Exclusion 2)			0.046	0.0491	0.0517	
AGCUGUGGCCGAGGAUAUCACGAACCAUGGAAAACCAUGGAACUCACACAUGAGGAUCACCCAUGUGAGAAGGCGGUCUCAGCA [Eli eng2 - 021] (Eterna round: R96, puzzle: Exclusion NG 2)	0.0163	0.0151				0.00868
UUGAUUCAUUCCUCUAUAAACAUGAGGAUCACCCAUGUAAGUGAGGAUAUAGUUGGAGUUGUAUACUAGAAGGCACUUAGUUUU [JR_ExcNG3_Sub048] (Eterna round: R96, puzzle: Exclusion NG 3)	0.026	0.013				0.00829
UCCGUGUCAGGAUAUAACUGGUCGAGCGCAGAAGCGUCCUGUUAGAAGGGACAUGAGGAUCACCCAUGUUUAAC [Eternabot (L1) Solution 74] (Eterna round: R97, puzzle: Exclusion 4)	0.213	0.0385				
